Test results: patent US20140295512A1, “Ketol-Acid Reductoisomerases With Improved Performance Properties” (CALIFORNIA INSTITUTE OF TECHNOLOGY, priority 2011, published 2014)
Values joined by “and” are separate entries in the source; they are usually repeats but may differ in a detail not shown here. Identical values can stand only once. Like-named read-outs stand apart in the source and are kept apart here.

Experiments:
[1] = KARI assay of purified S. exigua KARI and variants with NADPH (Examples 6-9); assay type: biochemical; details: for U/mg NADPH (specific activity): cofactor NADPH
In short: (§1)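 Kinetic read of NAD(P)H consumption at 340 nm in 100 mM potassium phosphate pH 7.0 with 1 mM DTT, 2.5 mM (S)-2-acetolactate and 10 mM MgCl2, cofactor 200 μM final. For Michaelis–Menten constants, NADPH was varied 200–12 μM and NADH 200–6 μM.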

[2] = KARI assay of purified S. exigua KARI and variants with NADH (Examples 6-9); assay type: biochemical
In short: as §1

[3] = tested on: S. cerevisiae host strain GEVO3956; experiment: Shake flask isobutanol fermentations with KARI as limiting pathway enzyme; assay type: cell-based; details: mean of 3 experiments
Excerpt: In this example, a series of KARI genes were individually expressed from a yeast promoter in conjunction with other components of an isobutanol production pathway in yeast such that KARI was the limiting enzyme in the pathway and the amount of isobutanol produced during a fermentation was dependent on the KARI activity level. In this system, the S. cerevisiae host strain GEVO3956 was used to produce isobutanol when supplied with an isobutanol production pathway plasmid expressing ALS and KIVD, and a low copy number plasmid expressing KARI, DHAD, and ADH enzymes.
Shake flask fermentations using GEVO3956 carrying these individual plasmids were performed together with GEVO3956 carrying pGV3022 (derived from pGV3009 but containing the E. coli ilvC-coSc gene expressed from the Sc_PDC1^−350 promoter) and GEVO3956 carrying pGV3012 (equivalent to pGV3009 lacking the Sc_PDC1^−350 promoter and KARI gene) for comparison of isobutanol production. The shake flask fermentations were performed as follows. The strains were grown overnight in 3 mL of YPD medium containing 1% v/v ethanol and 0.1 g/L G418 at 30° C. and 250 rpm. The OD600 of these cultures was determined after overnight growth and the appropriate amount of culture was added to 50 mL of YP medium containing 5% w/v glucose, 1% v/v ethanol. 200 mM MES, pH 6.5, and 0.1 g/L G418 to obtain an OD600 of 0.1 in 250 mL baffled flasks with sleeve caps. Cultures were incubated at 30° C. and 250 rpm overnight. The OD600 of these cultures was determined after overnight growth and the appropriate amount of culture to total 250 ODs was added to 50 mL Falcon tubes and centrifuged at 2700×g for 5 minutes. The supernatant was removed and cells were resuspended in 50 mL of YP medium containing 8% w/v glucose, 1% v/v ethanol, 200 mM MES, pH 6.5, and 0.1 g/L G418 to obtain a final OD600 of 5 OD per ml. At t=0 the OD600 of each flask was determined. The fermentation cultures were incubated at 30° C. and 250 rpm in non-baffled 250 mL flasks with vented screw cap tops. After 24, 48 and 72 hours of incubation, 1.5 mL of culture was removed into 1.5 mL microcentrifuge tubes from each culture. OD600 values were determined from the samples and the remainder of each sample was centrifuged for 10 min at 14,000 rpm in a microcentrifuge and 1 mL of the supernatant was removed to be submitted for gas chromatographic analysis. Analysis of volatile organic compounds, including ethanol and isobutanol, was performed on an Agilent 6890 gas chromatograph (GC) fitted with a 7683B liquid autosampler, a split/splitless injector port, a ZB-FFAP column (Phenomenex 30 m length, 0.32 mm ID, […] film thickness) connected to a flame ionization detector (FID). […]

B1: Se1_KARI: Slackia exigua (ATCC 700122) ketol-acid reductoisomerase, wild type, SEQ ID NO: 2 (protein, listed as Slackia exigua)
chain: MSVKTKEKEMAVTILYEQDVDPKVIQGLKVGIIGYGSQGHAHALNLMDSGVDVRVGLREGSSSWKTAEEAGLKVTDMDTAAEEADVIMVLVPDEIQPKVYQEHIAAHLKAGNTLAFAHGFNIHYGYIVPPEDVNVIMCAPKGPGHIVRRQFTEGSGVPDLACVQQDATGNAWDIVLSYCWGVGGARSGIIKATFAEETEEDLFGEQAVLCGGLVELVKAGFETLTEAGYPPELAYFECYHEMKMIVDLMYESGIHFMNYSISNTAEYGEYYAGPKVINEQSREAMKEILKRIQDGSFAQEFVDDCNNGHKRLLEQREAINTHPIETTGAQIRSMFSWIKKED
Q: With B1 as the molecule, how does the “kcat NADPH” value [1] read?
A: 0.80 s⁻¹

Q: What about the “U/mg NADPH (specific activity)” value [1] of the same molecule?
A: 0.32 ± 0.03 U/mg

Q: And the “U/mg NADPH (specific activity)” value ([1]; listed as Se1_KARI (wt))?
A: 0.32 U/mg

Q: What about the “U/mg NADPH (specific activity)” value ([1]; listed as Se1_KARI^his6) of the same molecule?
A: 0.32 U/mg and 0.32 ± 0.03 U/mg

Q: What about the “kcat NADPH” value ([1]; listed as Se1_KARI (wt)) of the same molecule?
A: 0.80 s⁻¹

Q: What about the “kcat NADPH” value ([1]; listed as Se1_KARI^his6) of the same molecule?
A: 0.8 s⁻¹

Q: What about the Km ([1]; read-out: Km for cofactor NADPH) of the same molecule?
A: < 1 µM

Q: What about the “kcat NADH” value [2] of the same molecule?
A: 0.40 s⁻¹

Q: And the “U/mg NADH (specific activity)” value ([2]; cofactor NADH)?
A: 0.15 U/mg

Q: And the “kcat NADH” value ([2]; listed as Se1_KARI (wt))?
A: 0.40 s⁻¹

Q: And the “kcat/Km ratio NADH/NADPH (cofactor specificity)” value ([2]; listed as Se1_KARI (wt))?
A: 0.08

Q: And the “kcat NADH” value ([2]; listed as Se1_KARI^his6)?
A: 0.4 s⁻¹

Q: And the “kcat/Km ratio NADH/NADPH (cofactor specificity)” value ([2]; listed as Se1_KARI^his6)?
A: 0.08

Q: And the Km ([2]; read-out: Km for cofactor NADH)?
A: 45 µM

Q: What about the “Ratio NADH/NADPH (U/mg)” value ([2]; specific activity ratio) of the same molecule?
A: 0.47

Q: What about the “48 h isobutanol Titer” value [3] of the same molecule?
A: 2.82 ± 0.11 g/L

Q: What about the “72 h isobutanol Titer” value [3] of the same molecule?
A: 4.40 ± 0.34 g/L

B2: E. coli IlvC: Escherichia coli ketol-acid reductoisomerase (ilvC), wild type (protein, UniProt P05793 2-491, looked up)
Ketol-acid reductoisomerase …: ANYFNTLNLRQQLAQLGKCRFMGRDEFADGASYLQGKKVVIVGCGAQGLNQGLNMRDSGLDISYALRKEAIAEKRASWRKATENGFKVGTYEELIPQADLVINLTPDKQHSDVVRTVQPLMKDGAALGYSHGFNIVEVGEQIRKDITVVMVAPKCPGTEVREEYKRGFGVPTLIAVHPENDPKGEGMAIAKAWAAATGGHRAGVLESSFVAEVKSDLMGEQTILCGMLQAGSLLCFDKLVEEGTDPAYAEKLIQFGWETITEALKQGGITLMMDRLSNPAKLRAYALSEQLKEIMAPLFQKHMDDIISGEFSSGMMADWANDDKKLLTWREETGKTAFETAPQYEGKIGEQEYFDKGVLMIAMVKAGVELAFETMVDSGIIEESAYYESLHELPLIANTIARKRLYEMNVVISDTAEYGNYLFSYACVPLLKPFMAELQPGDLGKAIPEGAVDNGQLRDVNEAIRSHAIEQVGKKLRGYMTDMKRIAVAG
Q: Which “48 h isobutanol Titer” value [3] does the source give for B2 here?
A: 3.93 ± 1.16 g/L

Q: And the “72 h isobutanol Titer” value [3]?
A: 4.72 ± 0.90 g/L
